Source: patent publication US20100166733A1

Molecular target: MCP-1 (known wild type human MCP-1, commercial, R&D #279-MC) (human) (UniProt P13500)
Assay: cell-based or functional assay

Sequence of UniProt P13500 (P13500 24-99): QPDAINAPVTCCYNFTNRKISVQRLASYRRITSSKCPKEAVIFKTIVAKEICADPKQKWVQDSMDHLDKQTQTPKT

- inhibition of MCP-1-induced THP-1 cell migration (transwell, cells counted by FACS), IC50: 0.4 nM
- inhibition of MCP-1-induced THP-1 cell migration (transwell, cells counted by FACS), percent inhibition: < 90%
Substance: MCP-1-65-Fc variant (MCP-1 splice variant MCP-1-65 fused to mutated N297A human IgG1 Fc) (Fc fusion)
